One test deals with Hif1α (UniProt Q16665). The test can be described thus: co-IP and immunoblot. To be noted: reference: wild type, EGF + IL-2; sites Y30,Y64,Y86.
Test [1] addresses His-tagged β-catenin–WT, tyrosine-phosphorylated form (P–β-catenin) (UniProt P35222). The test can be described thus: ELISA; called a pairwise binding assay, done as in refs. 19, 20; by the legends a β-catenin-coated 96-well microtiter plate with Jak3 added, optical density read; Kd by Hyperbol-fit (MicroCal Origin).
For test [2], the target named is T1, Autophosphorylated GST-tagged Jak3-WT (P-Jak3-WT) (UniProt P52333 1-1124, autophosphorylated on tyrosine (sites not given)).
T1 construct: also called phosphorylated Jak3; source: E. coli BL-21, purified, autophosphorylated
T1 sequence (looked up): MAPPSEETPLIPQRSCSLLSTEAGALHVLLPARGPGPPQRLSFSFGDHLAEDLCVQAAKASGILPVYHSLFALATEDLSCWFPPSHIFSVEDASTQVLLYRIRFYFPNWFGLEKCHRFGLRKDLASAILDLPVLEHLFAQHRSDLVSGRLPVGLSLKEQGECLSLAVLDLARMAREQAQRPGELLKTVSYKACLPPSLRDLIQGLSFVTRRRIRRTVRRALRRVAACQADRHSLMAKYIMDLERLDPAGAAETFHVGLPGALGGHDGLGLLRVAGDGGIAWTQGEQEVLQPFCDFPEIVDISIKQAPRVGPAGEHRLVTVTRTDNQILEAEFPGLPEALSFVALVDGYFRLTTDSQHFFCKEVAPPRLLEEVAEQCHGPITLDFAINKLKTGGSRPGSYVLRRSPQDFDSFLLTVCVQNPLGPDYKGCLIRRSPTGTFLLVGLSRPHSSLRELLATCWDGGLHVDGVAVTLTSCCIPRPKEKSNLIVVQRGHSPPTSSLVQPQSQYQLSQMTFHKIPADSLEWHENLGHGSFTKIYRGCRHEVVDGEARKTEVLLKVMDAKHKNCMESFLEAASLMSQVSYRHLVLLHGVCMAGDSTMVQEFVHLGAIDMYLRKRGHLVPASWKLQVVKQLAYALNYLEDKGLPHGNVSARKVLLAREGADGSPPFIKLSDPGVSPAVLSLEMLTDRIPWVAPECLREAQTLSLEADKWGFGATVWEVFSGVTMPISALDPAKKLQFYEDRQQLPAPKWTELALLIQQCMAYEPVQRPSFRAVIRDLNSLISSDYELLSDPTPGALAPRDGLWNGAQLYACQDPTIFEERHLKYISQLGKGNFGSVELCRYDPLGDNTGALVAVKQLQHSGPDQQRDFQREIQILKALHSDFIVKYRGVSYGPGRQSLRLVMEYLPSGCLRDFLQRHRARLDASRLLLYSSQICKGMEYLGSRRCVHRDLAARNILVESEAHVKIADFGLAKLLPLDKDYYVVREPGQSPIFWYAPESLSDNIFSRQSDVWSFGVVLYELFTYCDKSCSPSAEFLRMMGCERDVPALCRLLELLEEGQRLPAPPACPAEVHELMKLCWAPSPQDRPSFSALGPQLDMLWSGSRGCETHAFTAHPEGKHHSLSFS
The test is described as above. Conditions: both partners purified.

“β-catenin (from UniProt P35222) Y30F,Y64F,Y86F, EGF + IL-2”: the “binding against the reference” value in the test with Hif1α is reported as “stronger”. Molecule “Jak3 with the kinase domain deleted (domain or fragment)” came in with a fold decrease of the interaction against Jak3-WT in test [1] of more than 4 fold.

B1: His-tagged β-catenin–WT, tyrosine-phosphorylated form (P–β-catenin) (natural protein, UniProt P35222 1-781, looked up)
chain: MATQADLMELDMAMEPDRKAAVSHWQQQSYLDSGIHSGATTTAPSLSGKGNPEEEDVDTSQVLYEWEQGFSQSFTQEQVADIDGQYAMTRAQRVRAAMFPETLDEGMQIPSTQFDAAHPTNVQRLAEPSQMLKHAVVNLINYQDDAELATRAIPELTKLLNDEDQVVVNKAAVMVHQLSKKEASRHAIMRSPQMVSAIVRTMQNTNDVETARCTAGTLHNLSHHREGLLAIFKSGGIPALVKMLGSPVDSVLFYAITTLHNLLLHQEGAKMAVRLAGGLQKMVALLNKTNVKFLAITTDCLQILAYGNQESKLIILASGGPQALVNIMRTYTYEKLLWTTSRVLKVLSVCSSNKPAIVEAGGMQALGLHLTDPSQRLVQNCLWTLRNLSDAATKQEGMEGLLGTLVQLLGSDDINVVTCAAGILSNLTCNNYKNKMMVCQVGGIEALVRTVLRAGDREDITEPAICALRHLTSRHQEAEMAQNAVRLHYGLPVVVKLLHPPSHWPLIKATVGLIRNLALCPANHAPLREQGAIPRLVQLLVRAHQDTQRRTSMGGTQQQFVEGVRMEEIVEGCTGALHILARDVHNRIVIRGLNTIPLFVQLLYSPIENIQRVAAGVLCELAQDKEAAEAIEAEGATAPLTELLHSRNEGVATYAAAVLFRMSEDKPQDYKKRLSVELTSSLFRTEPMAWNETADLGLDIGAQGEPLGYRQDDPSYRSFHSGGYGQDALGMDPMMEHEMGGHHPGADYPVDGLPDLGHAQDLMDGLPPGDSNQLAWFDTDL
modifications: tyrosine-phosphorylated (made in TKX1; sites not stated)
notes: β-catenin, wild type, full-length cDNA; also called phosphorylated β-catenin; source: E. coli TKX1, purified
In test [2], B1 registered a Kd of 280 nM.

Values taken from article PMC5633104 (The Journal of Biological Chemistry, 2017).
